Consider two substances from PMC4466232.

In assay [1] the target is MVM capsid protein VP2 (stably expressed in human fibroblasts, HF-VPs) (Minute Virus of Mice, prototype strain (MVMp)). Nature of the assay: cross-linking; clarified cell homogenates in HNEM buffer (50 mM Hepes pH 8.0, 150 mM NaCl, 2 mM MgCl2, 1 mM EDTA) cross-linked with 10 mM dimethyl suberimidate (DMS), 10 min at 20°C; 5% SDS-PAGE and Western blot with the α-VPs antibody; MF-VPs quiescent by serum starvation (G0) or 8 h after serum addition (S); HF-VPs at hours after release of density arrest (G1).

Assay [2] has as its target MVM capsid protein VP2 (stably expressed in mouse fibroblasts, MF-VPs) (Minute Virus of Mice, prototype strain (MVMp)). Described as above.

For orientation: stoichiometry N means a count of units in the complex or per binding partner. On to “MVM capsid protein VP2 (stably expressed in human fibroblasts, HF-VPs) (natural protein)”, for which, in assay [1], the stoichiometry N was 3.

Substance “MVM capsid protein VP2 (stably expressed in mouse fibroblasts, MF-VPs) (natural protein)” registered a stoichiometry N in assay [2] of 3.
